This test addresses low density lipoprotein (LDL) (UniProt P04114). The test is described as follows: bio-layer interferometry with LDL; beside the traces: clear dose-dependent binding. (In general: Biolayer interferometry detects binding as a change in optical thickness at a sensor tip.)

What is called Kd is the equilibrium constant for the complex coming apart. Low values mean tighter binding, high ones weaker binding.

Chain of low density lipoprotein (LDL) (P04114 28-4563 limits assumed): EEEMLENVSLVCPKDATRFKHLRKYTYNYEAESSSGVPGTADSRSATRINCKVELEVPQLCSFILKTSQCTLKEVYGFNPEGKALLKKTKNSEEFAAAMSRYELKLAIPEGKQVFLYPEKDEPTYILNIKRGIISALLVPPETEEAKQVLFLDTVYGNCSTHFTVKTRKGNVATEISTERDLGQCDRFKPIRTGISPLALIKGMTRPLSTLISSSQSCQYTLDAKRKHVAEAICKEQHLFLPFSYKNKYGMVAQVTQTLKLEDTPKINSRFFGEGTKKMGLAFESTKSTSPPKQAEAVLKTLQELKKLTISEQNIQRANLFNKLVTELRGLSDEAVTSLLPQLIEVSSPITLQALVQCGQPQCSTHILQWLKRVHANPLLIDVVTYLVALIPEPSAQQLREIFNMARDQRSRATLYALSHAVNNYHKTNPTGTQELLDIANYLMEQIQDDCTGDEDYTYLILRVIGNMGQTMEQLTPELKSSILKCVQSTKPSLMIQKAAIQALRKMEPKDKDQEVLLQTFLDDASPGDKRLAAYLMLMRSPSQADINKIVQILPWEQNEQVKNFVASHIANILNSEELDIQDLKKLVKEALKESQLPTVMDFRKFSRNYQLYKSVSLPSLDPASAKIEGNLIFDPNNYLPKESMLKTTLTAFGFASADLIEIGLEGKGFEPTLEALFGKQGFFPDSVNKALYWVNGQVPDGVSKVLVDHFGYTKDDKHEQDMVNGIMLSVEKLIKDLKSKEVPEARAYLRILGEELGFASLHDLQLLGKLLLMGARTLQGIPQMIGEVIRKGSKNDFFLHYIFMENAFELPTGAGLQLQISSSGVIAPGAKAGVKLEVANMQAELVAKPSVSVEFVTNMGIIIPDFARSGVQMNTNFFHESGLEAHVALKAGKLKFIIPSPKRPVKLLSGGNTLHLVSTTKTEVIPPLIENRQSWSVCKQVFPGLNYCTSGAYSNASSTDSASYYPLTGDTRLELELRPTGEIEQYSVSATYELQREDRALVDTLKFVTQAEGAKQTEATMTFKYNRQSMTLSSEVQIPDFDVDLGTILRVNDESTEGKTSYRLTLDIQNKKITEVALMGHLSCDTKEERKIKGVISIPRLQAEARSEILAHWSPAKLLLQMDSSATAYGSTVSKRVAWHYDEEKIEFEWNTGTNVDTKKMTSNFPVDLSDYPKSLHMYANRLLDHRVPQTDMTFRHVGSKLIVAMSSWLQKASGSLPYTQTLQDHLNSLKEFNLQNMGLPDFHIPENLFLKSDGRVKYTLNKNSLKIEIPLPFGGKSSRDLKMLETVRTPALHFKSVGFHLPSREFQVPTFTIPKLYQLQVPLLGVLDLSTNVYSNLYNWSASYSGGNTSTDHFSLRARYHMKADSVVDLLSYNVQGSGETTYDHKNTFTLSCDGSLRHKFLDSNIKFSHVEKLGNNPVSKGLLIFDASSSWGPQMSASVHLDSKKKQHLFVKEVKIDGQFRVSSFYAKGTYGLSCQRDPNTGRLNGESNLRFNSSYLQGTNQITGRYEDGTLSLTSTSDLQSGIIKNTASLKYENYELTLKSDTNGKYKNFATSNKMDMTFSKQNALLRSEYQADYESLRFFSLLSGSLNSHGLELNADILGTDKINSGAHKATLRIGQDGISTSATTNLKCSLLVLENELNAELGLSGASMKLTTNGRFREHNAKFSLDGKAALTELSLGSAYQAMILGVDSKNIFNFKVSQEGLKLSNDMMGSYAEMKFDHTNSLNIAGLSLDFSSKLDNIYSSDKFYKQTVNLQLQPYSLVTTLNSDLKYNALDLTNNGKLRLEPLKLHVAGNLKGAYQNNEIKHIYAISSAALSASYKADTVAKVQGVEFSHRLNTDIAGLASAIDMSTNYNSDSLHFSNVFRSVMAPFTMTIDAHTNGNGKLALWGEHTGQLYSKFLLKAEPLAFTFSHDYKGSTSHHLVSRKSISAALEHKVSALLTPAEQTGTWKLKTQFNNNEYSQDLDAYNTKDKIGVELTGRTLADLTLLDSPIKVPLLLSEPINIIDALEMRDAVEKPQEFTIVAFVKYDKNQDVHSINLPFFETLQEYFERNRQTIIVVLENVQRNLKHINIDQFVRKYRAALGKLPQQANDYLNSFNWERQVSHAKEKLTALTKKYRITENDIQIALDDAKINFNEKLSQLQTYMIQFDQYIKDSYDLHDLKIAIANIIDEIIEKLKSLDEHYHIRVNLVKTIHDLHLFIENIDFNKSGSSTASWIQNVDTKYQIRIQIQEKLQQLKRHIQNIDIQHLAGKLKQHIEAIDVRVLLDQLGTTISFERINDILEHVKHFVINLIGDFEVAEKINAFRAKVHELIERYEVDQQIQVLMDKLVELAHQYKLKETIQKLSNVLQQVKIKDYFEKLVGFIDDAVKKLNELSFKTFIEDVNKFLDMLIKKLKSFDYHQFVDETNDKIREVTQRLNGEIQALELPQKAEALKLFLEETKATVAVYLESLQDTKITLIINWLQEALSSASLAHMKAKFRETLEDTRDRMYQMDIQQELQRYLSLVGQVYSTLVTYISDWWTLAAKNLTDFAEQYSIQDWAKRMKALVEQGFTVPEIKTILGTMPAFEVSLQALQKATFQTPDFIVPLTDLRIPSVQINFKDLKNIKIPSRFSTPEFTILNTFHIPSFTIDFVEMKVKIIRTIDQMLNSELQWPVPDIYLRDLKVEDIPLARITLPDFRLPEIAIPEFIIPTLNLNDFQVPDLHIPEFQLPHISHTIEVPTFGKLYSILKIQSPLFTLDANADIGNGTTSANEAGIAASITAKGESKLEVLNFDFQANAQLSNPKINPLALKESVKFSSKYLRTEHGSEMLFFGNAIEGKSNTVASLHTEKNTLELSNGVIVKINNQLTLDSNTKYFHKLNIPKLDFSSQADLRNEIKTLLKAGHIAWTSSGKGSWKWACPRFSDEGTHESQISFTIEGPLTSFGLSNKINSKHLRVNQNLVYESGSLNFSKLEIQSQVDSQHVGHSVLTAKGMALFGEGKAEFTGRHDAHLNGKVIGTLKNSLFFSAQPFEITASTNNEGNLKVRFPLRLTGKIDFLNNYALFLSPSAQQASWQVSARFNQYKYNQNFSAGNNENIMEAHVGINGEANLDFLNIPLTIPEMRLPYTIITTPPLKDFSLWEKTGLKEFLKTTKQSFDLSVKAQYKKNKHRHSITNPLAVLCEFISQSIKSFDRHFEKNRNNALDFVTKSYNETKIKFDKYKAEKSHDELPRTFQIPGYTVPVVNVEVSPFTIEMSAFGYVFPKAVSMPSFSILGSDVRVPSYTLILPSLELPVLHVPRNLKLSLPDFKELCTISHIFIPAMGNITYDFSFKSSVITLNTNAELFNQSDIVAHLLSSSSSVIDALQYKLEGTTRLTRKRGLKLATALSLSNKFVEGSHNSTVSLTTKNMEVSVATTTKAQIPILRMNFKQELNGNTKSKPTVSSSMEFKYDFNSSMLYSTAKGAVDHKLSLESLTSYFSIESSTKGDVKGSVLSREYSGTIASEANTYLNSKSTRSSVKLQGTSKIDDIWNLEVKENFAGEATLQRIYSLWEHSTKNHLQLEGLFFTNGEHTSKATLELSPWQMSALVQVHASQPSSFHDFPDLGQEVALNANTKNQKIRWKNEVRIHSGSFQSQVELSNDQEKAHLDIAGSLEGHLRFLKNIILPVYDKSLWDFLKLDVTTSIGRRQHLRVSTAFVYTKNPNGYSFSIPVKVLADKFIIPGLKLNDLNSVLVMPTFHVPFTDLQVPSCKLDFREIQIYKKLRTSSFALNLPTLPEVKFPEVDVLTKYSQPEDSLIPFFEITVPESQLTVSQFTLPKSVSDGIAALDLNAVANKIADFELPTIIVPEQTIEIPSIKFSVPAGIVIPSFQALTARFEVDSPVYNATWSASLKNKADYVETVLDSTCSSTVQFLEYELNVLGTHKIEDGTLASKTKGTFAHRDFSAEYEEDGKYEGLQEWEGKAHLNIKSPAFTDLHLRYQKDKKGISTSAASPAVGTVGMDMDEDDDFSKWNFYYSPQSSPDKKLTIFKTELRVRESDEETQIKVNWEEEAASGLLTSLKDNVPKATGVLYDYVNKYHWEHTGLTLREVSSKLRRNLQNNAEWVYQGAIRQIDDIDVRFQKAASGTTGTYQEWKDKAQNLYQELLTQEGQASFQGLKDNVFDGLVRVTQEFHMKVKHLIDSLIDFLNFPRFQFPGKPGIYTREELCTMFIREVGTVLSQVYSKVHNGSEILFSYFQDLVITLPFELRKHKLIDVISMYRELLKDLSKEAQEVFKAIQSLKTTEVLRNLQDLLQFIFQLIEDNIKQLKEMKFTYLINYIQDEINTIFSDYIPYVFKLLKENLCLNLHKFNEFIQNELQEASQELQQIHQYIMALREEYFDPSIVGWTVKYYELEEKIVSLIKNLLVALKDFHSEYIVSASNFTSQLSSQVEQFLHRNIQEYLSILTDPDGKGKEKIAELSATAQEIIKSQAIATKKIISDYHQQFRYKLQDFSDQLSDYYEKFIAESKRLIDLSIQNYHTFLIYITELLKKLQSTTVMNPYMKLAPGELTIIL

For the substance ALK1-E75A-hsIgG-Fc (Fc fusion), the Kd turned out to be 525 nM.

Source of the values: patent US20210403549A1.
